Reference: article PMC10899660 (2024)

B1: Recombinant Cyclin H (CCNH) protein with a C-HIS tag (natural protein)
chain: MYHNSSQKRHWTFSSEEQLARLRADANRKFRCKAVANGKVLPNDPVFLEPHEEMTLCKYYEKRLLEFCSVFKPAMPRSVVGTACMYFKRFYLNNSVMEYHPRIIMLTCAFLACKVDEFNVSSPQFVGNLRESPLGQEKALEQILEYELLLIQQLNFHLIVHNPYRPFEGFLIDLKTRYPILENPEILRKTADDFLNRIALTDAYLLYTPSQIALTAILSSASRAGITMESYLSESLMLKENRTCLSQLLDIMKSMRNLVKKYEPPRSEEVAVLKQKLERCHSAELALNVITKKRKGYEDDDYVSKKSKHEEEEWTDDDLVESL

Experiments:
Experiment in all cases: SPR
[1] = biological target: B1
[2] = biological target: B1
Ece1-III = biological target: Ece1-III

## DVAPAAPAAPADQAPTVPAPQEFNTAITKR [Ece1-II, synthetic peptide]
[1]
  Kd: 9.13 µM
[2]
  koff: 0.00415 s⁻¹

## B1
Ece1-III
  Kd: 17.2 nM
  koff: 0.00171 s⁻¹

## EDIDSVVAGIIADMPFVVRAVDTAMTSVASTKR [Ece1-IV, synthetic peptide]
[1]
  Kd: 5.98 µM
[2]
  koff: 0.000297 s⁻¹

## DGANDDVANAVVRLPEIVARVATGVQQSIENAKR [Ece1-V, synthetic peptide]
[1]
  Kd: 3.16 µM
[2]
  koff: 0.000719 s⁻¹
